Results taken from the supplement of paper PMC5998384.

What was measured:
[1] = system: HeLa Kyoto; assay: solubility in G1/S (NP-40 vs SDS abundance) (log2 ratio); higher = more soluble; details: cell cycle stage: G1/S
[2] = system: HeLa Kyoto; assay: solubility change mitosis vs G1/S (difference of NP-40 vs SDS log2 ratios) (log2 ratio difference); higher = more soluble in mitosis
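Throughout, for solubility change mitosis vs G1/S (difference of NP-40 vs SDS log2 ratios): synchronized HeLa Kyoto cells (double thymidine block for G1/S, nocodazole release for mitosis), protein amounts in NP-40 versus SDS lysates quantified by mass spectrometry, three biological replicates.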
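Throughout, for solubility in G1/S (NP-40 vs SDS abundance): HeLa Kyoto cells arrested at G1/S by double thymidine block, proteins quantified by TMT10plex mass spectrometry in mild NP-40 versus SDS extracts, three biological replicates.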

Substance | solubility in G1/S (log2) [1] | solubility change mitosis (log2) [2]
MGVDFDVKTFCHNLRATKPPYECPVETCRKVYKSYSGIEYHLYHYDHDNPPPPQQTPLRKHKKKGRQSRPANKQSPSPSEVSQSPGREVMSYAQAQRMVEVDLHGRVHRISIFDNLDVVSEDEEAPEEAPENGSNKENTETPAATPKSGKHKNKEKRKDSNHHHHHNVSASTTPKLPEVVYRELEQDTPDAPPRPTSYYRYIEKSAEELDEEVEYDMDEEDYIWLDIMNERRKTEGVSPIPQEIFEYLMDRLEKESYFESHNKGDPNALVDEDAVCCICNDGECQNSNVILFCDMCNLAVHQECYGVPYIPEGQWLCRRCLQSPSRAVDCALCPNKGGAFKQTDDGRWAHVVCALWIPEVCFANTVFLEPIDSIEHIPPARWKLTCYICKQRGSGACIQCHKANCYTAFHVTCAQQAGLYMKMEPVRETGANGTSFSVRKTAYCDIHTPPGSARRLPALSHSEGEEDEDEEEDEGKGWSSEKVKKAKAKSRIKMKKARKILAEKRAAAPVVSVPCIPPHRLSKITNRLTIQRKSQFMQRLHSYWTLKRQSRNGVPLLRRLQTHLQSQRNCDQVGRDSEDKNWALKEQLKSWQRLRHDLERARLLVELIRKREKLKRETIKVQQIAMEMQLTPFLILLRKTLEQLQEKDTGNIFSEPVPLSEVPDYLDHIKKPMDFFTMKQNLEAYRYLNFDDFEEDFNLIVSNCLKYNAKDTIFYRAAVRLREQGGAVLRQARRQAEKMGIDFETGMHIPHSLAGDEATHHTEDAAEEERLVLLENQKHLPVEEQLKLLLERLDEVNASKQSVGRSRRAKMIKKEMTALRRKLAHQRETGRDGPERHGPSSRGSLTPHPAACDKDGQTDSAAEESSSQETSKGLGPNMSSTPAHEVGRRTSVLFSKKNPKTAGPPKRPGRPPKNRESQMTPSHGGSPVGPPQLPIMSSLRQRKRGRSPRPSSSSDSDSDKSTEDPPMDLPANGFSGGNQPVKKSFLVYRNDCSLPRSSSDSESSSSSSSSAASDRTSTTPSKQGRGKPSFSRGTFPEDSSEDTSGTENEAYSVGTGRGVGHSMVRKSLGRGAGWLSEDEDSPLDALDLVWAKCRGYPSYPALIIDPKMPREGMFHHGVPIPVPPLEVLKLGEQMTQEAREHLYLVLFFDNKRTWQWLPRTKLVPLGVNQDLDKEKMLEGRKSNIRKSVQIAYHRALQHRSKVQGEQSSETSDSD [BRPF1] | -1.3 | 0.44
MHGHGGYDSDFSDDERCGESSKRKKRTVEDDLLLQKPFQKEKHGKVAHKQVAAELLDREEARNRRFHLIAMDAYQRHTKFVNDYILYYGGKKEDFKRLGENDKTDLDVIRENHRFLWNEEDEMDMTWEKRLAKKYYDKLFKEYCIADLSKYKENKFGFRWRVEKEVISGKGQFFCGNKYCDKKEGLKSWEVNFGYIEHGEKRNALVKLRLCQECSIKLNFHHRRKEIKSKKRKDKTKKDCEESSHKKSRLSSAEEASKKKDKGHSSSKKSEDSLLRNSDEEESASESELWKGPLPETDEKSQEEEFDEYFQDLFL [FRA10AC1] | -0.47 | 0.365
MHPGGGPSRAERLELGLGRERPAKAIFLHRRPGEGGGRERCLRCGHVCVRRGPGPREAVPSGRPRPDTLTPPWVRQRAVTGTFCASWTPLRNRRAQRMATDMQRKRSSECLDGTLTPSDGQSMERAESPTPGMAQGMEPGAGQEGAMFVHARSYEDLTESEDGAASGDSHKEGTRGPPPLPTDMRQISQDFSELSTQLTGVARDLQEEMLPGSSEDWLEPPGAVGRPATEPPREGTTEGDEEDATEAWRLHQKHVFVLSEAGKPVYSRYGSEEALSSTMGVMVALVSFLEADKNAIRSIHADGYKVVFVRRSPLVLVAVARTRQSAQELAQELLYIYYQILSLLTGAQLSHIFQQKQNYDLRRLLSGSERITDNLLQLMARDPSFLMGAARCLPLAAAVRDTVSASLQQARARSLVFSILLARNQLVALVRRKDQFLHPIDLHLLFNLISSSSSFREGEAWTPVCLPKFNAAGFFHAHISYLEPDTDLCLLLVSTDREDFFAVSDCRRRFQERLRKRGAHLALREALRTPYYSVAQVGIPDLRHFLYKSKSSGLFTSPEIEAPYTSEEEQERLLGLYQYLHSRAHNASRPLKTIYYTGPNENLLAWVTGAFELYMCYSPLGTKASAVSAIHKLMRWIRKEEDRLFILTPLTY [MON1A] | 0.0361 | -0.081
MICALL2 | 0.151 | -0.0133
MIEVVCNDRLGKKVRVKCNTDDTIGDLKKLIAAQTGTRWNKIVLKKWYTIFKDHVSLGDYEIHDGMNLELYYQ [UBL5] | -1.06 | 0.566
